The target in one experiment is T1, GST-IQGAP1-C (Homo sapiens, UniProt P46940).
T1 construct: the C-terminal half of IQGAP1 (comprising amino acids 864–1657) containing a GST-tag; made in house; host or cells: Escherichia coli BL-21
T1 sequence (P46940 864-1657): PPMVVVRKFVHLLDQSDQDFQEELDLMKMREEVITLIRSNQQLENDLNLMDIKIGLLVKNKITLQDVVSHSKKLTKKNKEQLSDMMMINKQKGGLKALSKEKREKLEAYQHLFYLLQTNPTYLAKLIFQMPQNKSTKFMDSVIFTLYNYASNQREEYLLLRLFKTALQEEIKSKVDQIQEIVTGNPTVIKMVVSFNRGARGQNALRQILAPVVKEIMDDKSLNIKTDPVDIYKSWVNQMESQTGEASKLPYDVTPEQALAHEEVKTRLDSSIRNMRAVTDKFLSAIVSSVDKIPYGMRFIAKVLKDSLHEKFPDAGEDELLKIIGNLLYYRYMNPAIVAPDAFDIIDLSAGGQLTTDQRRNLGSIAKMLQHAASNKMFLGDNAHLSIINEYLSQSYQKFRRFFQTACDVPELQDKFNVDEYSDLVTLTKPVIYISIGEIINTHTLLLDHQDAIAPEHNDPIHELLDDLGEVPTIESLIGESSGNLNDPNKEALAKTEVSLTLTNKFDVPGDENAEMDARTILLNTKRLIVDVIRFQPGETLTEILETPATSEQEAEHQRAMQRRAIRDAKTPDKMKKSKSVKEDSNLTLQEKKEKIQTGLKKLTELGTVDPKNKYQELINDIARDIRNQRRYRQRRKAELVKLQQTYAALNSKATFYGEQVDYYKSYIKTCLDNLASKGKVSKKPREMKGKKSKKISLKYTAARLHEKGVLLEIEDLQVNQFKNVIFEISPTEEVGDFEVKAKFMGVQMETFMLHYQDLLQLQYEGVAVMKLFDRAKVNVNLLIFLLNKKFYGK
The experiment is described as follows: GST pull-down assay and Western blotting. The format is binding. Conditions: 2 h at 4 °C, Western blot with anti-Cdc42. As for the experimental part: (a) Schematic representation of IQGAP1 protein. The C-terminal half of IQGAP1 (amino acids 864–1657) was used in the HTRF assay. (b) GST pull-down assay. GST-IQGAP1-C was incubated with His-tagged Cdc42-N17 or Cdc42-Q61L for 2 h at 4 °C. GST alone was incubated with Cdc42-Q61L as the negative control. Complexes were isolated using glutathione-Sepharose and resolved by SDS-PAGE. The gel was cut at 70 kDa. The upper part of the gel was stained with Coomassie blue. The lower portion of the gel was transferred to PVDF membrane and probed with anti-Cdc42 antibodies. (c) Scheme of the HTRF assay in 384–well format showing fluorescent labeled GST-IQGAP1-C (donor Europium cryptate, K) and His-Cdc42-Q61L (acceptor XL665). (d) Time resolved fluorescence was detected at 615 and 665 nm on the Biotek Synergy using recombinant proteins. The Y-axis represents the ratio of acceptor to donor emission wavelength multiplied by 10,000. The means and standard errors of two replicates are shown. The green bar (Buffer) indicates samples without His-Cdc42. […] No single label is printed for the pair, so the substance label joins the two printed names.

Experiment [1] addresses C-terminal half of IQGAP1 (amino acids 864–1657). Also noted: method as in PMID 17984089. Conditions: scintillation proximity assay; read-out: equilibrium dissociation constant (Kd) of Cdc42-Q61L binding to IQGAP1 fragment; cited from earlier work. Background: In a scintillation proximity assay essentially only radioactivity close to the scintillant gives light.

Regarding “Cdc42-N17: dominant negative Cdc42 mutant, negative control”, the “binding to IQGAP1 in GST pulldown” value with GST-IQGAP1-C is listed as “no detectable binding”.

As for “Cdc42-Q61L: constitutively active Cdc42 mutant construct that binds IQGAP1 with high affinity”, in experiment [1], the Kd is 24 ± 4 nM. Also, in the experiment with GST-IQGAP1-C, the “binding to IQGAP1 in GST pulldown” value was “binds to the C-terminal region of IQGAP1”.

What is called Kd is a measure of binding affinity in units of concentration.

The values are drawn from publication PMC9576799, “Discovery of small molecule inhibitors that effectively disrupt IQGAP1-Cdc42 interaction in breast cancer cells” (Scientific Reports, 2022).
